Assay results from PMC9482650, “Quantitative fragmentomics allow affinity mapping of interactomes” (Nature Communications, 2022).

T1: GRIP1_4, Q9Y3R0
T1 sequence (Q9Y3R0 467-571, limits assumed, looked up): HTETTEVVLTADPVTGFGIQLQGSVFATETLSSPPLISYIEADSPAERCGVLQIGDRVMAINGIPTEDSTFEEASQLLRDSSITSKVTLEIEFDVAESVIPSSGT

T2: GRIP1_3, Q9Y3R0
T2 sequence (Q9Y3R0 247-346, limits assumed, looked up): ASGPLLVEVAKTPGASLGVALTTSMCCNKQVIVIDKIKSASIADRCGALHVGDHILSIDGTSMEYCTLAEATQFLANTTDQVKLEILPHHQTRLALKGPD

T3: PDZD7_3, Q9H5P4
T3 sequence (Q9H5P4 857-944, limits assumed, looked up): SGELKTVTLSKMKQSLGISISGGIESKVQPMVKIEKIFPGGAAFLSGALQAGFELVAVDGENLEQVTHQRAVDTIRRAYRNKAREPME

T4: GRIP1_7, Q9Y3R0
T4 sequence (Q9Y3R0 999-1096, limits assumed, looked up): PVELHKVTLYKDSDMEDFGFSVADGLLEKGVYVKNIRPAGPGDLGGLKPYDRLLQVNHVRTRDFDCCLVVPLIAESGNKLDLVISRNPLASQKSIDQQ

T5: CARD11, Q9BXL7
T5 sequence (Q9BXL7 662-765, limits assumed, looked up): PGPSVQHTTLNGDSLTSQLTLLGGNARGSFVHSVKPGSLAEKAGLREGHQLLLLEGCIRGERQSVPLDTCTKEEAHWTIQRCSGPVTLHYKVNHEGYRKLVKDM

T6: LIN7A, O14910
T6 sequence (O14910 103-200, limits assumed, looked up): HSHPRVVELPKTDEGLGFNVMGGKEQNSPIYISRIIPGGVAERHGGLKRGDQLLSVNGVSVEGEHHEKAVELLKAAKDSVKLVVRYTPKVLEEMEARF

T7: SYNJ2BP, P57105
T7 sequence (P57105 8-110, limits assumed, looked up): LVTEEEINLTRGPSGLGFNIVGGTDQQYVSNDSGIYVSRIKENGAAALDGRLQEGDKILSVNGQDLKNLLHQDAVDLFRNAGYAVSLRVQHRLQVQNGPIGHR

T8: DVL3, Q92997
T8 sequence (Q92997 244-331, limits assumed, looked up): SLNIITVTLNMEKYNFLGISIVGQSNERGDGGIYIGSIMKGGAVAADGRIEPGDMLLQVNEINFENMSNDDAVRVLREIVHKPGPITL

T9: MPP7, Q5T2T1
T9 sequence (Q5T2T1 134-230, limits assumed, looked up): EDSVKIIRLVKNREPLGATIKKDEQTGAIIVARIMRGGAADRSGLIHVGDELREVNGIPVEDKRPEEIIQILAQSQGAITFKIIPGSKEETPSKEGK

T10: SNTG2, Q9NY99
T10 sequence (Q9NY99 68-166, limits assumed, looked up): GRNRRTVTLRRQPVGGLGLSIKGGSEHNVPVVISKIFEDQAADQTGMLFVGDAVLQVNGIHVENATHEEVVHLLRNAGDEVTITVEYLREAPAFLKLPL


Experiments:
Assay in all cases: holdup assay
Parameters in all cases: key: below the threshold = too weak to quantify, mostly under pKd 3.1 to 4
Conditions in all cases: plain residues with an end cap or a label only (N-terminal biotin on a linker: ado-ado)
IL16_1, Q14005 = biological target: IL16_1, Q14005
Inadl_2, Q8NI35 = biological target: Inadl_2, Q8NI35
MAST1, Q9Y2H9 = biological target: MAST1, Q9Y2H9
FRMPD2_1, Q68DX3 = biological target: FRMPD2_1, Q68DX3
NHERF4_1, Q86UT5-2 = biological target: NHERF4_1, Q86UT5-2
FRMPD2_3, Q68DX3 = biological target: FRMPD2_3, Q68DX3
NHERF4_4, Q86UT5 = biological target: NHERF4_4, Q86UT5
GRIP1_4, Q9Y3R0 = biological target: T1, GRIP1_4, Q9Y3R0
NHERF4_2, Q86UT5 = biological target: NHERF4_2, Q86UT5
DLG1_2, Q12959 = biological target: DLG1_2, Q12959
GRIP1_3, Q9Y3R0 = biological target: T2, GRIP1_3, Q9Y3R0
PDZD7_3, Q9H5P4 = biological target: T3, PDZD7_3, Q9H5P4
GRIP1_7, Q9Y3R0 = biological target: T4, GRIP1_7, Q9Y3R0
CARD11, Q9BXL7 = biological target: T5, CARD11, Q9BXL7
LIN7A, O14910 = biological target: T6, LIN7A, O14910
IL16_3, Q14005 = biological target: IL16_3, Q14005
GRID2IP_2, A4D2P6 = biological target: GRID2IP_2, A4D2P6
SNX27, Q96L92 = biological target: SNX27, Q96L92
SYNJ2BP, P57105 = biological target: T7, SYNJ2BP, P57105
DVL3, Q92997 = biological target: T8, DVL3, Q92997
MPP7, Q5T2T1 = biological target: T9, MPP7, Q5T2T1
DLG4_2, P78352 = biological target: DLG4_2, P78352
MAGI1_2, Q96QZ7 = biological target: MAGI1_2, Q96QZ7
GRIP2_7, Q9C0E4 = biological target: GRIP2_7, Q9C0E4
HTRA2, O43464 = biological target: HTRA2, O43464
SNTG2, Q9NY99 = biological target: T10, SNTG2, Q9NY99
DLG4_3, P78352 = biological target: DLG4_3, P78352
GRIP2_4, Q9C0E4 = biological target: GRIP2_4, Q9C0E4
GRIP2_4, Q9C0E4, sequence (Q9C0E4 446-548): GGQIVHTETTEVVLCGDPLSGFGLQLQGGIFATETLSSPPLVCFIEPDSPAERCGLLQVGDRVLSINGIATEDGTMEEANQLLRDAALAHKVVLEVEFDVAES

NHERF4_1, Q86UT5-2, sequence (Q86UT5 other isoform, or with tags, fused parts or gaps): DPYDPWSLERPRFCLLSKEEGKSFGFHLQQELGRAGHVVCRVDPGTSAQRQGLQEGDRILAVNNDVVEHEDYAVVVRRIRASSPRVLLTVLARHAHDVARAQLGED
MAST1, Q9Y2H9, sequence (Q9Y2H9 962-1065): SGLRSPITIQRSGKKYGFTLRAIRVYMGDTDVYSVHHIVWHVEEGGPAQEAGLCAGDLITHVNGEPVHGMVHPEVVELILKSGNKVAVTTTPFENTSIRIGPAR
HTRA2, O43464, sequence (O43464 355-458): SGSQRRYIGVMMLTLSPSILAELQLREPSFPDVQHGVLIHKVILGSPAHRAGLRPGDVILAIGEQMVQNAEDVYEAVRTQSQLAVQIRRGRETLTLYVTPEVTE
NHERF4_4, Q86UT5, sequence (Q86UT5 464-550): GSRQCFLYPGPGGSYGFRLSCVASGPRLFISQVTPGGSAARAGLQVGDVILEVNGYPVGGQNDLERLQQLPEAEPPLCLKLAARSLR
DLG4_2, P78352, sequence (P78352 155-259): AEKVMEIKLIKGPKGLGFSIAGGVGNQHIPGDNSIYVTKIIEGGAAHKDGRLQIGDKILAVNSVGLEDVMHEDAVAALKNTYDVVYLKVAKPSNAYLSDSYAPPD
GRIP2_7, Q9C0E4, sequence (Q9C0E4 934-1023): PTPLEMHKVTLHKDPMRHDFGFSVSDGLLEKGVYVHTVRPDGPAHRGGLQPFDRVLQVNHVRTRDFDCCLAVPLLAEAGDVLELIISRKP
Inadl_2, Q8NI35, sequence (Q8NI35 238-335): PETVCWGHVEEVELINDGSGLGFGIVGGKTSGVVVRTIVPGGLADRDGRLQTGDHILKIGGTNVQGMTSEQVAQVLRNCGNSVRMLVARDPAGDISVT
NHERF4_2, Q86UT5, sequence (Q86UT5 220-308): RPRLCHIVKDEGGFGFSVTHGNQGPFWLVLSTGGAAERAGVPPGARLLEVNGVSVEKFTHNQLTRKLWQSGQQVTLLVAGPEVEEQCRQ
IL16_1, Q14005, sequence (Q14005 210-306): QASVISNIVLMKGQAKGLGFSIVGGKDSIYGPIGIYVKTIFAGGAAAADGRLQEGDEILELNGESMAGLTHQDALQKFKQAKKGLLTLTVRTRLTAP
DLG1_2, Q12959, sequence (Q12959 314-412): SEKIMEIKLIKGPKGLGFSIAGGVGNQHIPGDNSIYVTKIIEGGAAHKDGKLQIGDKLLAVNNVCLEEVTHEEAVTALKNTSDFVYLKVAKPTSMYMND
DLG4_3, P78352, sequence (P78352 306-403): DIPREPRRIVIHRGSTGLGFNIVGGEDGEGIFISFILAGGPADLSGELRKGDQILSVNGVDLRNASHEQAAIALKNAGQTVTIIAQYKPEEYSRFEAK
MAGI1_2, Q96QZ7, sequence (Q96QZ7 456-580): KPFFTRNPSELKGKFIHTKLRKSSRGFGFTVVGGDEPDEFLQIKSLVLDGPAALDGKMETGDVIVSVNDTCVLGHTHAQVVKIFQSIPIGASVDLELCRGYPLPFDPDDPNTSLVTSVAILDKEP
GRID2IP_2, A4D2P6, sequence (A4D2P6 272-370): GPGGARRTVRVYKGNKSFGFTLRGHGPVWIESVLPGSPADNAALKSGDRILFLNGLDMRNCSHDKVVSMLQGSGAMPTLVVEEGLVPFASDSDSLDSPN
FRMPD2_1, Q68DX3, sequence (Q68DX3 770-861): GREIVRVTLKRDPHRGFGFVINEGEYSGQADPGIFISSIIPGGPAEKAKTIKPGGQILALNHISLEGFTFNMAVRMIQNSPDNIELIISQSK
IL16_3, Q14005, sequence (Q14005 1107-1207): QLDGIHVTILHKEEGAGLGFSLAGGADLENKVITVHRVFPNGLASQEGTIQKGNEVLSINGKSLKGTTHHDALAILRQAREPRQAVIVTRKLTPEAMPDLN
FRMPD2_3, Q68DX3, sequence (Q68DX3 1073-1166): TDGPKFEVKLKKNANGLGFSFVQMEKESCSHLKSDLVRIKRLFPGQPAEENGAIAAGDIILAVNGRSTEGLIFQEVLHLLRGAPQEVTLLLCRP

| Binder | pKd (Inadl_2, Q8NI35) | pKd (MAST1, Q9Y2H9) | pKd (FRMPD2_1, Q68DX3) | pKd (NHERF4_1, Q86UT5-2) | pKd (FRMPD2_3, Q68DX3) | pKd (NHERF4_4, Q86UT5) | pKd (GRIP1_4, Q9Y3R0) | pKd (NHERF4_2, Q86UT5) | pKd (GRIP1_3, Q9Y3R0) | pKd (PDZD7_3, Q9H5P4) | pKd (GRIP1_7, Q9Y3R0) | pKd (CARD11, Q9BXL7) | pKd (LIN7A, O14910) | pKd (IL16_3, Q14005) | pKd (GRID2IP_2, A4D2P6) | pKd (SYNJ2BP, P57105) | pKd (DVL3, Q92997) | pKd (MPP7, Q5T2T1) | pKd (DLG4_2, P78352) | pKd (GRIP2_7, Q9C0E4) | other results |
| --- | --- | --- | --- | --- | --- | --- | --- | --- | --- | --- | --- | --- | --- | --- | --- | --- | --- | --- | --- | --- | --- |
| IDESKKEWLI [CNTNAP2, Q9UHC6] | 4.67 | below the threshold | below the threshold | below the threshold | 3.51 | below the threshold | below the threshold | below the threshold | below the threshold | below the threshold | below the threshold | below the threshold | 3.72 | below the threshold | below the threshold | below the threshold | 3.85 | 5.46 | below the threshold | 4.45 | pKd (IL16_1, Q14005): below the threshold; pKd (DLG1_2, Q12959): below the threshold; pKd (SNX27, Q96L92): below the threshold; pKd (MAGI1_2, Q96QZ7): below the threshold; pKd (HTRA2, O43464): 3.49; pKd (SNTG2, Q9NY99): below the threshold; pKd (DLG4_3, P78352): below the threshold; pKd (GRIP2_4, Q9C0E4): below the threshold |
| DTKNYKQTSV [CRIPT, Q9P021] | below the threshold | 4.82 | below the threshold | 3.53 | below the threshold | below the threshold | below the threshold | below the threshold | below the threshold | 3.94 | below the threshold | below the threshold | 3.56 | below the threshold | 4.39 | 5.12 | below the threshold | below the threshold | 4.9 | below the threshold | pKd (IL16_1, Q14005): below the threshold; pKd (DLG1_2, Q12959): 5.07; pKd (SNX27, Q96L92): 5.33; pKd (MAGI1_2, Q96QZ7): 4.32; pKd (HTRA2, O43464): below the threshold; pKd (SNTG2, Q9NY99): 4.37; pKd (DLG4_3, P78352): 5.39; pKd (GRIP2_4, Q9C0E4): below the threshold |
| KRPEMTSSSV [MUC3A, MUC3B, Q02505;Q9H195] | below the threshold | 4.17 | – | 3.58 | below the threshold | – | – | below the threshold | below the threshold | – | below the threshold | 1.75 | below the threshold | below the threshold | 3.73 | 5.02 | below the threshold | below the threshold | 4.15 | below the threshold | pKd (HTRA2, O43464): below the threshold; pKd (DLG4_3, P78352): 1.91; pKd (GRIP2_4, Q9C0E4): below the threshold |

Now from value to binder, other results behind:

| pKd (Inadl_2, Q8NI35) | pKd (MAST1, Q9Y2H9) | pKd (FRMPD2_1, Q68DX3) | pKd (NHERF4_1, Q86UT5-2) | pKd (FRMPD2_3, Q68DX3) | pKd (NHERF4_4, Q86UT5) | pKd (GRIP1_4, Q9Y3R0) | pKd (NHERF4_2, Q86UT5) | pKd (GRIP1_3, Q9Y3R0) | pKd (PDZD7_3, Q9H5P4) | pKd (GRIP1_7, Q9Y3R0) | pKd (CARD11, Q9BXL7) | pKd (LIN7A, O14910) | pKd (IL16_3, Q14005) | pKd (GRID2IP_2, A4D2P6) | pKd (SYNJ2BP, P57105) | pKd (DVL3, Q92997) | pKd (MPP7, Q5T2T1) | pKd (DLG4_2, P78352) | pKd (GRIP2_7, Q9C0E4) | Binder | other results |
| --- | --- | --- | --- | --- | --- | --- | --- | --- | --- | --- | --- | --- | --- | --- | --- | --- | --- | --- | --- | --- | --- |
| below the threshold | 4.2 | below the threshold | 3.95 | below the threshold | below the threshold | below the threshold | below the threshold | below the threshold | 4.67 | below the threshold | below the threshold | below the threshold | below the threshold | 4.75 | below the threshold | below the threshold | below the threshold | below the threshold | below the threshold | PSVGSKKTVL [REELD1, A0A1B0GV85] | pKd (IL16_1, Q14005): below the threshold; pKd (DLG1_2, Q12959): 3.79; pKd (SNX27, Q96L92): 3.71; pKd (MAGI1_2, Q96QZ7): 3.56; pKd (HTRA2, O43464): below the threshold; pKd (SNTG2, Q9NY99): 3.66; pKd (DLG4_3, P78352): below the threshold; pKd (GRIP2_4, Q9C0E4): below the threshold |
| below the threshold | below the threshold | below the threshold | 4.29 | below the threshold | below the threshold | below the threshold | below the threshold | below the threshold | 3.75 | below the threshold | below the threshold | below the threshold | below the threshold | below the threshold | below the threshold | below the threshold | below the threshold | below the threshold | below the threshold | SRSVVESDEL [MYPN, Q86TC9] | pKd (IL16_1, Q14005): below the threshold; pKd (DLG1_2, Q12959): below the threshold; pKd (SNX27, Q96L92): 4.17; pKd (MAGI1_2, Q96QZ7): below the threshold; pKd (HTRA2, O43464): below the threshold; pKd (SNTG2, Q9NY99): below the threshold; pKd (DLG4_3, P78352): below the threshold; pKd (GRIP2_4, Q9C0E4): below the threshold |
| below the threshold | 4.37 | below the threshold | 4.31 | below the threshold | below the threshold | below the threshold | – | below the threshold | 4.12 | – | below the threshold | – | below the threshold | – | below the threshold | – | below the threshold | – | below the threshold | KSRVAFFEEL [NF2, P35240;P35240-1] | – |
